Assay: soluble fraction after stress (log2 fold change); higher = more stays soluble; pooled small domains, quantitative proteomics
Conditions: stress: 75 degC
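Also: 20 min heating vs room temperature control held 20 min.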

Row | Sequence | soluble fraction (log2)
1 | HMEVEIPSREALLGLVQKHLKPVSFDEFVSHFKLGDERQQVGIKRRLRAMERDGQLVYTKANSYGLPDRM | 0.436
2 | HMEVGVSGTVFNTDSLNVRKGPGTNFDTVTSLKRGSVVEVFEQSAVDGTVWGRIANGWVNMQYVSL | -0.707
3 | HMEVKEVDYSAFMTMTEENSISKVEIEENQILFKKKGDDQTTYKTARMDDPALITRLHDQGVDFTGQ | 0.139
4 | HMEVKRANRKERFLEALPYQFSRQDYLNIADKNKIPHKTAEGYITKFVDAGLIHREAHNNYTNPTKA | -0.0913
5 | HMEVLPLHQVKLKYAEADTILIALKSAQSMLSPRGQLLADNRSQQIFVYDDEAHTATLIEAIKHLDQPL | -0.166
6 | HMEVLTEPKVQSIDTHGEKSTFVIESPNPLQPDEIAKLVGADGISVRVDRTWLKSHRDSTWTYSILTVS | -0.118
7 | HMEVPFRNAAIFKTRSGDYAIRASYDGVDLGIKPIEKSTARTYFQLTDVKDKESFLNMTARNQYESEIAGI | -0.0612
8 | HMEVPNLIGMTDKDLQRTYFQLPIEAAGDGSVVIKQLPEPGEKVKEGSVIRVLLG | 0.193
9 | HMEVPQKTLEILEPWRGRKGFLIPVLQAVQHEFGYVPKEAIETVSREMKMPTAEIYGVVTFYAQFH | -0.571
10 | HMEVSEGEIREKVESVFSSNPRQAYNYKQISKKLNINDKSERQIVWDVLRKLAGSGKIQEVEHGRFRARAE | -0.162
11 | HMEVSKETFPAYVAVDSLPVYKSASTSSSKVTTIDFGREVTVVETRGGWAKIQYGSYKGFAEIEGMSKN | -1.06
12 | HMEVVELTDDEKMILATLHDGPVEIGHIKQVVGLSGKKWDAATKSLRQKGLINVVLENEQKLMVK | 0.492
13 | HMEWGEADFVRLDEALATLRTLSPRQAEVVDLRFFSELSLEETAATLGLSLATVKRDWSVARLYLQRALS | 0.198
14 | HMEWTVEKQAAATLNAWMRKNSEMTSEKKVAVAAGIGPATVNRIMKAEVSTTIGVLSSLARAFGHEAYEMI | -0.0249
15 | HMEYDEVVVVKQIIPKGKNTMVAHLKHLKEHGETGFLKQAVGYLKLHASEIPFSVDAVISEVH | -0.253
16 | HMEYDYKVIDFFKDYYSYLNYQEIEPNILDKQLTTLTEEESAKIAGIMKLDYEDFTRGIEIVTGS | -0.536
17 | HMEYLIENYGSVINQARMKKGMTQEQLSSKTGVSQAYIRSIESQNMKPTDAVARKIEFELGIKLFE | -1.05
18 | HMEYSKSIKRLREDKNLTVEELAKRLSLDVEEIQKAEDGEDVDQKTLEAIARYFGVQYDSLVEGTAKSK | -0.0335
19 | HMEYTTEELDSLLKLYFQTHESINRNEFEQLTSYTRTTASRRLKTLVQAGKLQNIGLYRFPVYKPTEGNF | -2.82
20 | HMEYYWHQLKGLEVVNTRGESLGRVRRLLETGANDVLVLEGEQERLIPYVPDTIKQVDLAKGLIEVAWDRD | -0.17
21 | HMFAADIGVGIVDADSLRVRSEPSTGAPIVTSLLRGTQVTVQEKLDGWYRITYNDVSGFVSAEYLIFTADE | -0.358
22 | HMFAGEWKQDASGWWYQNDDGSFTRNGWQNISGKQYYFNENGYMLHDTTTPDGKQVGSDGSLV | 0.0573
23 | HMFAKVEGITGDILDKLQQQRGFLALSDKSSPEAIYDTFGVSKKVFKQAIGTLFKQQKISIEAEGIRLV | -1.56
24 | HMFASSADGVEGLKTNPIFASTKEKSDAGKLLYTRYLAIGIFRMLELAKATDPKALEALVEAGG | 0.259

Row | Sequence | soluble fraction (log2)
25 | HMFDDEELDTFAGRQSDSYDQQEVEQFSDVLHTMRQDEVQAWWRSLTLRGISLPDELKDEVIML | -0.481
26 | HMFDDLSTNLRDLAHNYIEKYSPSKQQLKVFLLKKYLMKFKGSKTKKEISEIIDKIISNLEENKYLNDEL | 0.36
27 | HMFDFMVLGQAIKKARESKEMTREQLAEILDVAPRHIQSIENEGQYPSFPLFIRLVTMFNISVDQY | -2.31
28 | HMFDGNIKIVEDAFSVTIVARGTEVKISGDPENVYLASKTVEGLLTLIDKGEAITDQRVHYVIGLVREG | -2.45
29 | HMFDGTLSIYPNPSKGIFNLDLLNVKDGEYTITVDNLLGQEVYSEIRNVINSSSKTLDLSNLTKGV | -0.204
30 | HMFDLKKIYGTILDETKSSLLLSTDDGREVQIIKTDGTEVLASGLGVYVEVAYRDETPDGYPIALTI | -0.41
31 | HMFDTVKIGKRIAELRKKRDMTQFELADRLGISYQAVSNWERGNSMPDIAKLPELAEIFGVTVDEILG | 0.283
32 | HMFEARNTTFSEDGKTITETYGVKRIETEFVSDSTIVQKLYDNDVLTKTKTITFSADGLSIKEDV | -0.0561
33 | HMFEDYNELDEYLETRFIPTYVLLKQRKNANGEIDHFPSIRLQHIMALKLSEAELEHVMNYLKEKNIRVG | -1.68
34 | HMFEKVKLTLTIPSKYSGSTYSALRNRMNKFSKEEWLSNGDLKIEIEVTGGQKTDIYTLINKLTNGEAIIE | -1.25
35 | HMFELDELDLVILKNLANGLSKKQIRVKLKKMDLRPNSESAIDKRVSKLFDEFGAKNSTELVAKLIREGL | -2.71
36 | HMFELTVGTPIRVIREPYFGKLGTVTELPAQLMVVESGTEVRVLKAKIEGEGEVLVPRANVEIIATG | -1.38
37 | HMFELVKISENIPIRDLAETLKTTPNEIIKELMVFGVLANINQTLNFDLASKVADKLGFEVELL | -0.266
38 | HMFEMPTSLVRTLSAIAIKQPVMQSEIIKLRGAGAYDHIKELIIRELVHRKEEGRSPILTTTKKFQEYFRL | -2.52
39 | HMFERIYVFSRDGDIIELPKGSTVLDFAYHVHTHVGNRAQAARVNKRYVPLTYQLKTGEQVEIIIS | -1.44
40 | HMFEYDEEEYEKLGPNADLTIKSMTDWGQSLVRKGVWSESDFEEFKIMGGTAQGLRALQKVRSYY | -0.649
41 | HMFFAGLSPEAARTLDSLPLHSWSSVEQIARQAGLNIETVRKELGLLELSGIALSRQGRFRRA | -1.07
42 | HMFFFILNKGAKSGGEITHAVLNGSIVSKPAGWDAFHGLVLAKEKLSSEEIQRQMKELGVEMEIVPL | -2.4
43 | HMFGDQMQSYLSRLSQIDVDIIALKYGDNFTYREIGLILEMSEDSVRQRAVRARKKLETMIQKG | -3.31
44 | HMFGEDNLKSKEIKERVTEVAKHADDPVWIEARRKWKDENPDQNVKDYQQAYISGRIHELPWDVSYI | 0.117
45 | HMFGEKEFYQWIGKTAGEKFSGLPAAVIKSLYKYWREYNLSEEDIMGFIRQTELLPKRTPLDVELFFEK | -0.857
46 | HMFGELTPDTAKRFLLTAREQEMASLIAQGLTNKEIAFRLGISEATVRTHIYNLFQKVGVQSRIELLNVLH | -1.69
47 | HMFGNTGETSGTGVAFTRSPVDGENKIFGEFLVNAQGEDVVAGIRTPQPISEMEQAFPEVYSKFESVAEIL | 0.0261
48 | HMFHDALVSFAERRVIFMKELVNRLNEARKAYYEGESIMSDKEYDNLYDKLVKMELTTGVVLPNSPTEEVG | -1.33

Row | Sequence | soluble fraction (log2)
49 | HMFIEHSKYKLSFKYNQLGKISNVINSNNGIIMDKHFDQNITLLAKLTENTFQEIIKHFPTIIIKRL | -3.74
50 | HMFIEPPSLEELERRLRGRGTETDDVVDMRMRTALVELSQKMEYDYRLVNDDLDEATRQLVAYVNEIAEQ | -0.0555
51 | HMFIPMTDAQRHLFANKLAKLPELSEYSRGTESYEDFAIRIADMLLEPPKFRMFYPLLEQLGF | -1.77
52 | HMFIVTDQMQRVLDYITEKEKATNNDLEELLGVKSTRIYTITRKLIQHNLIIPVGKGKNKYYIL | -0.902
53 | HMFKDVTVPSVINKTEAEATNMLKGLNLVVSVEYEENANKSDGIVTAQNVNANKVIKEGETVTITVNKQP | 0.113
54 | HMFKNWMPFDEARIFVRKLKFNSHDEFRKYLKANEINIPSKPWSTYKGKGWVSIGDFLGTHR | -3.26
55 | HMFLPGETFDVKIVKIGEGENQGVGYLDDGTMIVIENGRDHLNELARVIVTRVLQNSAGQMIFSDYEE | -2.21
56 | HMFLTPLEETRLAIEEVVIAKNIAIDLFPRESAIRKQQHELIYHYHLKGLTVGTEKNKRLRIFPRGY | 0.0279
57 | HMFLTSDEGKIMQLLEDKQRITRKDAQELLGVSQSTAGRILKTLVDNGQITQRGGGRTTRYELIK | 0.104
58 | HMFMKNTEVALAIKGKFSNQTTITSKELVLFLSDLFPELSNKTIPWKINQLKAENLIYQTGRGIYTFN | -2.53
59 | HMFMMVAGHLQIKNEKYYMVLELRTEQGERKTKWIGTGLAVKGNKRRAEAMLEETRTKYLSPV | -2.18
60 | HMFMPGTIIKQFRELRNYSQDYVSRKMGISQNAYSKIENNITQLTVTHVKQLSSILDVPIVELLR | -3.71
61 | HMFMSDDDIRILVKEWLQSQNRKSYQLAEEIGIRPQTFYAQMSVRKISANTKKALSRIIPGL | -0.769
62 | HMFMSKTAMVAIISEADKYGLFNIPEGLSVEKTADEIFEGHIEVDFDKLKNELDFVYKNEALEKQFQEN | -0.852
63 | HMFNPEQDPKQLTGRERAVADLIGLGANNAEIAIRLSMSERTVKAHLTSIFQQLNVRDRVQLALVMNQL | -0.493
64 | HMFPASQPVPTDLNQIVRAGLEVFSGRLEGIDVRVSLEPELPRVNVDPEHFKRIVVNLVDNAAEAMQNS | 0.183
65 | HMFPATAPQLKAVHAILGKQGISDELDKLARVNEWLVGLNKEPVAAISELDKHTTSGLIDHLQGELNE | 0.297
66 | HMFPDLSPEQQRIVDVLTKSNDLQLNQLSVKTGIPIGDITSILFQMEMMGVVKPMAGGNYHLL | -1.68
67 | HMFPDLTEDEQLIVDVLQRTGDLQINSLIVEANIPVNKMSEILFELEMKGVIRTLAGGVYQLL | -2.05
68 | HMFPDRLRELRKGRNITLETLAEEMNKHLEPGQKPNTAAQIGNWERGDRSPSYIEVRKLADFFNVSMDFL | -0.586
69 | HMFPELNAEETQVVQLLQKQTEGMQVNSLVVESNIPITRMSGILFELELKGIIRNYAGGVYKL | -3.2
70 | HMFPELSEEAKVIVDALSKENDQQLNVLIANTGMAVGTMQAKLFELEMQGVVKPLAGSVYHLM | 0.111

Reference: the domain aggregation screens of Martell et al. (2025)
